The text below walks through data of US9176064B2, “Bisubstrate fluorescent probes for protein kinase CK2” (University of Tartu, priority 2012, dated 2015).

Where a SMILES comes first, the peptide text is derived from it. [ ]: non-standard residue; d: D form. The star is where a group is joined. X1 = O=C(CCCCCCCn1cnc2c(Br)c(Br)c(Br)c(Br)c21)*

Broadly, the remaining activity is the signal under treatment as a percentage of the control signal.

What all share (assay): Kinase panel residual activity
Common to all, as to type: biochemical
Holding throughout (settings): compound at 1 micromolar

Data set [1] concerns the target T1, DYRK2 (Homo sapiens, UniProt Q92630).
T1 sequence (Q92630 1-601): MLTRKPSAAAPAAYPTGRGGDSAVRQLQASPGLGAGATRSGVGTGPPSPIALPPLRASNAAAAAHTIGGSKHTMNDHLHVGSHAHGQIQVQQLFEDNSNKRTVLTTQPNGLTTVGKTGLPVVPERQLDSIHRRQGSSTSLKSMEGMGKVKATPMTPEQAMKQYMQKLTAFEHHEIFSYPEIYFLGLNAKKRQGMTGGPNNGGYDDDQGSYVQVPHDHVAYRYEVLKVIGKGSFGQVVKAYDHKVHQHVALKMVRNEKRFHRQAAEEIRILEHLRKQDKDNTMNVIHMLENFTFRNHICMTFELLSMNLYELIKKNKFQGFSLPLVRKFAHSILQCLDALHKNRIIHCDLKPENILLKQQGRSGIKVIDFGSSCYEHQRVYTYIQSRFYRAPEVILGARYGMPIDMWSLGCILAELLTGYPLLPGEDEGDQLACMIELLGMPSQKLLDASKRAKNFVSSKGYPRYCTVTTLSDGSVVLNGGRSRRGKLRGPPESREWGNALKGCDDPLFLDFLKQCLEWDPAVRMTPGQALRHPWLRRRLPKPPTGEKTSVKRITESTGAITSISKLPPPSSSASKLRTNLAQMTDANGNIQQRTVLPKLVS

Data set [2] deals with PIM1 (Homo sapiens, UniProt P11309).
For data set [3], the target named is T2, TAO1 (Homo sapiens, UniProt Q7L7X3).
T2 sequence (Q7L7X3 1-1001): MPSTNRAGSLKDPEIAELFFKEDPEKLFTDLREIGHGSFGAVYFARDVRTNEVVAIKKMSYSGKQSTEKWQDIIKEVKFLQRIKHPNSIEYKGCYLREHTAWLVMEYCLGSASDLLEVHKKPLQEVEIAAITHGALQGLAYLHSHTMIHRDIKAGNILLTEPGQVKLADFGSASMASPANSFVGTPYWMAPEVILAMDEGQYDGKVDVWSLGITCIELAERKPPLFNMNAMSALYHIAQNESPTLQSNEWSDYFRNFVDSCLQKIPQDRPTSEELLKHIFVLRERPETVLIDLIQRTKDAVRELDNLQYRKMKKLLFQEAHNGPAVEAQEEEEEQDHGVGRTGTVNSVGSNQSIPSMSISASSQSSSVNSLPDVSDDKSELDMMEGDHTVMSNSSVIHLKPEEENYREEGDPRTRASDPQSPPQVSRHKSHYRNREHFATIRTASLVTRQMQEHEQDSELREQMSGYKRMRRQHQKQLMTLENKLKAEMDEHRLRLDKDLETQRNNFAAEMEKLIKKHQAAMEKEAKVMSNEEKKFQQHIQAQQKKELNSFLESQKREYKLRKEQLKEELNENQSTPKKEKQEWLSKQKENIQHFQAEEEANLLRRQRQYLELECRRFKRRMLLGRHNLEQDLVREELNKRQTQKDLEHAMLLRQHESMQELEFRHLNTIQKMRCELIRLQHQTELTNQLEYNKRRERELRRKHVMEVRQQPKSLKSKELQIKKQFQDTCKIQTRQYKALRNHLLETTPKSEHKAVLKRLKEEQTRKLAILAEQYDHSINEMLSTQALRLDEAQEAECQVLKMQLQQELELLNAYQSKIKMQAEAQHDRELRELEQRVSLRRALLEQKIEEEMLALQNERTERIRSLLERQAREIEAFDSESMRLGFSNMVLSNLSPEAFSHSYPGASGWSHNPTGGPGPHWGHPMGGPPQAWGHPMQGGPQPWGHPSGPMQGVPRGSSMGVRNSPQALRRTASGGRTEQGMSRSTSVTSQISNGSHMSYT

The target of data set [4] is T3, PDK1 (Homo sapiens, UniProt O15530).
T3 sequence (O15530 1-556): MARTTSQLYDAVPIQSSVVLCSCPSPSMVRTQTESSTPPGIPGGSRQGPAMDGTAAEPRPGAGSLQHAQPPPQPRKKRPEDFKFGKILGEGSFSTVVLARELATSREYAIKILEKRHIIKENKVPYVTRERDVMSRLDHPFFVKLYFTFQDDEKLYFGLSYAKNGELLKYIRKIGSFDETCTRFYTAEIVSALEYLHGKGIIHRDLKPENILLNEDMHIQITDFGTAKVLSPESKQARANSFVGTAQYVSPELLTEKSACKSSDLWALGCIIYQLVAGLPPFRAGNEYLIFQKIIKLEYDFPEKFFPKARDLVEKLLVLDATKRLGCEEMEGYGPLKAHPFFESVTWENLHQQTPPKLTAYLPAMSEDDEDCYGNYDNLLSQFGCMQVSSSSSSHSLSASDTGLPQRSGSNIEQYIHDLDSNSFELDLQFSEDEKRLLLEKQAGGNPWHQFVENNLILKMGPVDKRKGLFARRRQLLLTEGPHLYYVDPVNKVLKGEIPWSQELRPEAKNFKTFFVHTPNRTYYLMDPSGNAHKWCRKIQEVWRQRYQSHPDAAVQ

The target of data set [5] is TTBK1 (Homo sapiens, UniProt Q5TCY1).
For data set [6], the target named is TTBK2 (Homo sapiens, UniProt Q6IQ55).
Data set [7] deals with T4, p38g MAPK (Homo sapiens, UniProt P53778).
T4 sequence (P53778 1-367): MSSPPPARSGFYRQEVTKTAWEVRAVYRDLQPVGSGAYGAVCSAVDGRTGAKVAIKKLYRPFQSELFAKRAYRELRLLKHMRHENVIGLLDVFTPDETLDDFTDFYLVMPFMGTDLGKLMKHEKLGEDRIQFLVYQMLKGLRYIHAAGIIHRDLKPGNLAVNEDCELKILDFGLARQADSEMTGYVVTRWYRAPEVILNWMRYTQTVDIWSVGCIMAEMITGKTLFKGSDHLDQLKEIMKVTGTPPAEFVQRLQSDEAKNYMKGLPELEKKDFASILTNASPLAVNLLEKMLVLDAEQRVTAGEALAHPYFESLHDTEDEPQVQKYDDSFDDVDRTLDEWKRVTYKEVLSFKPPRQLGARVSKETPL

Data set [8] addresses MNK1 (Homo sapiens, UniProt Q9BUB5).
Data set [9] concerns the target ABL (Homo sapiens, UniProt P00519).
Data set [10] addresses CHK2 (Homo sapiens, UniProt O96017).
For data set [11], the target named is CAMK1 (Homo sapiens, UniProt Q14012).
Sequence of CAMK1 (Q14012 whole entry): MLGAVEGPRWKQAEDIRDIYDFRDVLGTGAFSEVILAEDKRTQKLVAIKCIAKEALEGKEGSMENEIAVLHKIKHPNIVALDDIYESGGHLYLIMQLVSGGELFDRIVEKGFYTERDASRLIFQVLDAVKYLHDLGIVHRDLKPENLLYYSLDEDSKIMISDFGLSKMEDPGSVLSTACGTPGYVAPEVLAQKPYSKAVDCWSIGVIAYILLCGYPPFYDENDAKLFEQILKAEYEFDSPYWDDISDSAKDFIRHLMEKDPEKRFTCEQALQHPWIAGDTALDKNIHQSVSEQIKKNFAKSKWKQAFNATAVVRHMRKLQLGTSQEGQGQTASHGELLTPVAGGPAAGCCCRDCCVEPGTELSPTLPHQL

Sequence of PIM1 (P11309 whole entry, species assumed): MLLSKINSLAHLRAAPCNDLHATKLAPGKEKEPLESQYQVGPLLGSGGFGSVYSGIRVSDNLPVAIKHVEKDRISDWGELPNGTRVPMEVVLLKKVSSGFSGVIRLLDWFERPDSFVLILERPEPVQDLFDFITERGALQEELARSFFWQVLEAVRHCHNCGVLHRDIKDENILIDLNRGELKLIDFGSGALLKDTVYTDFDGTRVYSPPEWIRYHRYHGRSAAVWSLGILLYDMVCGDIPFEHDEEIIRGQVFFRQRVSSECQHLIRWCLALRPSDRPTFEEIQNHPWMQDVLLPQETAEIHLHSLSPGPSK
Sequence of TTBK1 (Q5TCY1 whole entry, species assumed): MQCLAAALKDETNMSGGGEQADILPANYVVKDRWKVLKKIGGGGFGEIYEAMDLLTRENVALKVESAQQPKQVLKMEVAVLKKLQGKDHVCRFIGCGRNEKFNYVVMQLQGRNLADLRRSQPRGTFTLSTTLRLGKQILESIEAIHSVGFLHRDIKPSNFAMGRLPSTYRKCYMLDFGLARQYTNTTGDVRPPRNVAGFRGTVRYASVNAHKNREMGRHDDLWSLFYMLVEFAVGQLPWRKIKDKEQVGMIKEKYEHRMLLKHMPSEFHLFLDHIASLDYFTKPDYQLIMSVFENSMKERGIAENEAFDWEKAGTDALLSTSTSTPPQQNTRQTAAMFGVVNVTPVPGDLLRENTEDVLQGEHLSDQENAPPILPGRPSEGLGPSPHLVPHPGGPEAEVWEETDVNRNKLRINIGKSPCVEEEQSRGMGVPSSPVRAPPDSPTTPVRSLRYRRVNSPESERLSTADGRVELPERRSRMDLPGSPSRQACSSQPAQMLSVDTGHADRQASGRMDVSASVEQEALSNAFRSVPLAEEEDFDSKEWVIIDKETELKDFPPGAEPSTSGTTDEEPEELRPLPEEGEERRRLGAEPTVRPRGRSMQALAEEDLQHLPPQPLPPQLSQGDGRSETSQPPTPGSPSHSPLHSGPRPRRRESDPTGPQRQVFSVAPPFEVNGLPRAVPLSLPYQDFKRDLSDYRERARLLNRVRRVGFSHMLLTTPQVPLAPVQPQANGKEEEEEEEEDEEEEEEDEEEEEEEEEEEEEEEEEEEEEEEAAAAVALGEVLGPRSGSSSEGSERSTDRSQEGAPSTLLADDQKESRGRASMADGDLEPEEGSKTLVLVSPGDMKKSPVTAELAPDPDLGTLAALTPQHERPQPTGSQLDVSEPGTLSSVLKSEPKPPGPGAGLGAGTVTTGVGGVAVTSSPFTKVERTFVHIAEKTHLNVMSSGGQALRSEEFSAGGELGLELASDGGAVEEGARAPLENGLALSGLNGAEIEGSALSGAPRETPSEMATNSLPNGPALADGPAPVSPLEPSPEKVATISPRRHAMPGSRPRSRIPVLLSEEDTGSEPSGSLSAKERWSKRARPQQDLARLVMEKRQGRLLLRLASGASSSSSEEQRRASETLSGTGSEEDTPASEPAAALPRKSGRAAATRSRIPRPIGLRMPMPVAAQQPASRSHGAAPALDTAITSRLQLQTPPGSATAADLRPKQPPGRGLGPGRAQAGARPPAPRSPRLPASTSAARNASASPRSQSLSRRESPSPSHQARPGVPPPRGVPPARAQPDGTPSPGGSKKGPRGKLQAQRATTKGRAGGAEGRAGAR
Sequence of CHK2 (O96017 whole entry, species assumed): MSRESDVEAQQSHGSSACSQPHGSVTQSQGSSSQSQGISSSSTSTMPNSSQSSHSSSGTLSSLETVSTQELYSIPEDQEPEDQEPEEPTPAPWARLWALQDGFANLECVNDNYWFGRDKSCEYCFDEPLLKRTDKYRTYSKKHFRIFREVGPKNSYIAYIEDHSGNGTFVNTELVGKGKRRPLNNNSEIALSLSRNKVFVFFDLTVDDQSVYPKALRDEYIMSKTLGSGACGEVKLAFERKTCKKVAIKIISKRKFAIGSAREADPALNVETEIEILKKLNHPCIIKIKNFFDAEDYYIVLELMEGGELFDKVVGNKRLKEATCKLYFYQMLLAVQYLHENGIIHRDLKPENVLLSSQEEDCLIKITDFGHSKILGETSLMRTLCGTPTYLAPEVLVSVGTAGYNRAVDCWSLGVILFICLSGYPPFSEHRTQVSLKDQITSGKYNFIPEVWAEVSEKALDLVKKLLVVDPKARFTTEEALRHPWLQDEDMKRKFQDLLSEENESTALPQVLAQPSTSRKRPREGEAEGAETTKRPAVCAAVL
Sequence of TTBK2 (Q6IQ55 whole entry, species assumed): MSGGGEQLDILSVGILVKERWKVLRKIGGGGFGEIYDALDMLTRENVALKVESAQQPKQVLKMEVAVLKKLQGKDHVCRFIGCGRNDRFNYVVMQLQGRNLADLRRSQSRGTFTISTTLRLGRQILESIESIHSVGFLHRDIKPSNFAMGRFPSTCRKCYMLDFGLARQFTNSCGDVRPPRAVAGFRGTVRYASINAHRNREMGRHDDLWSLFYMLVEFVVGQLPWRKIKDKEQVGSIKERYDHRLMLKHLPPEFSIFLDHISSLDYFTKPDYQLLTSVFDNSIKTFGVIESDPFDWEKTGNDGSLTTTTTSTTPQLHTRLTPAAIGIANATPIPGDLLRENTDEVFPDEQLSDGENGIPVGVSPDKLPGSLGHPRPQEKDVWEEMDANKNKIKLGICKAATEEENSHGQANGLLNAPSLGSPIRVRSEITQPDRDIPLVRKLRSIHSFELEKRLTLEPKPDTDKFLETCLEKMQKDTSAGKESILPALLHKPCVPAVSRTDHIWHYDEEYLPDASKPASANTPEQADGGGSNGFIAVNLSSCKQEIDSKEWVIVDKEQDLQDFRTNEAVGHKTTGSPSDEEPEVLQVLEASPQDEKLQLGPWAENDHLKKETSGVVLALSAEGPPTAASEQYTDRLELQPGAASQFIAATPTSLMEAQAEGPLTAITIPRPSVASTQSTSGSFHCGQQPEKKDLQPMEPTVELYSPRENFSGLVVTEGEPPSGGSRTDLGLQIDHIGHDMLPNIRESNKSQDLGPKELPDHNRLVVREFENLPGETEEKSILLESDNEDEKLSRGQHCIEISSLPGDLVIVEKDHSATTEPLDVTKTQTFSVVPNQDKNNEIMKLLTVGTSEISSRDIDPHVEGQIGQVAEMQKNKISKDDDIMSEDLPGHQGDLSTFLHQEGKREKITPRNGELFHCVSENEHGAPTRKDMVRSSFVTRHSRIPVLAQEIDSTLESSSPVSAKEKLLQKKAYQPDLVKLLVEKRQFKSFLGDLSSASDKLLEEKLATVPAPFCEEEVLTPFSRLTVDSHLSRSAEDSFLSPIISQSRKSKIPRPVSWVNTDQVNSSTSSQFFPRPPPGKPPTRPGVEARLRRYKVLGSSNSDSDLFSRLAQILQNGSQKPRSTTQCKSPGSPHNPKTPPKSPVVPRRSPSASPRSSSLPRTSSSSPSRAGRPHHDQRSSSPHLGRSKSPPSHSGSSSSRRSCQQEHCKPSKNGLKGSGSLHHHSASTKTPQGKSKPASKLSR
Sequence of ABL (P00519 whole entry, species assumed): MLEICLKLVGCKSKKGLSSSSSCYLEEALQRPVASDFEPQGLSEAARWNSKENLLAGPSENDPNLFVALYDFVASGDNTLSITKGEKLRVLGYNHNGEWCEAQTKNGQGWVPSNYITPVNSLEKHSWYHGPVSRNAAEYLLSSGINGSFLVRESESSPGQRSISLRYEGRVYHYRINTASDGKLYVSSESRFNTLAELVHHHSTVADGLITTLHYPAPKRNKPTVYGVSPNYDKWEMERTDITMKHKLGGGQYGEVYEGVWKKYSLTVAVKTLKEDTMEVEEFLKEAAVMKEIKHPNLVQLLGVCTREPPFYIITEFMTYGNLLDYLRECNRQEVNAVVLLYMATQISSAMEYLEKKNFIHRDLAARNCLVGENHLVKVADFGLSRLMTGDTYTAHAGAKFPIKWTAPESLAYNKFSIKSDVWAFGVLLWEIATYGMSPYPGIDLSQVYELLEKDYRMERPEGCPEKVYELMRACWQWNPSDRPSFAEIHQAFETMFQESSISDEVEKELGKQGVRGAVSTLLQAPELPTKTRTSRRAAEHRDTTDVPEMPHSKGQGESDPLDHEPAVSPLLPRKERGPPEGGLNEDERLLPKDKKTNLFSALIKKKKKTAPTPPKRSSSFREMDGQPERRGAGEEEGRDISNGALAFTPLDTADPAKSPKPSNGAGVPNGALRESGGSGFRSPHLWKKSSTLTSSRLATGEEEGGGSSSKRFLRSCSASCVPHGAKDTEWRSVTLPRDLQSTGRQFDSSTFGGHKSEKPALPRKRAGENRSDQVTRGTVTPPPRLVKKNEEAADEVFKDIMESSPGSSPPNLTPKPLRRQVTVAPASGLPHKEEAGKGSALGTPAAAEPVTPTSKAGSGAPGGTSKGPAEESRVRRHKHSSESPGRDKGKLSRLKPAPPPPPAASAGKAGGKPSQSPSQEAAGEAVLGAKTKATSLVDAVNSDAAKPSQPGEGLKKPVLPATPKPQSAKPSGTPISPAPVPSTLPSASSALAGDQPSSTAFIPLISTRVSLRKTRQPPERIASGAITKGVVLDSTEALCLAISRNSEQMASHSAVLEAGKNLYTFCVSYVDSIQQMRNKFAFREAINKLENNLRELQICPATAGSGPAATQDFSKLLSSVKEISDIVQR

`NCCCC[C@H](NC(=O)[C@H](CC(=O)O)NC(=O)[C@H](CC(=O)O)NC(=O)[C@H](CC(=O)O)NC(=O)[C@H](CC(=O)O)NC(=O)[C@H](CC(=O)O)NC(=O)[C@@H](CC(=O)O)NC(=O)CCCCCCCn1cnc2c(Br)c(Br)c(Br)c(Br)c21)C(=O)O` [TBBI-OcA-(D-Asp)-(L-Asp)5-(L-Lys)-OH] (X1-[dD]DDDDDK-OH): the remaining activity at 1 µM came out at 17% in [1]; 62% in data set [2]; 84% in [3]; 86% in data set [4]; 90% in data set [5]; 95% in data set [6]. For the same compound, the remaining activity at 1 µM stood at 97% in data set [7]; 99% in [8]; 101% in [9]; 101% in data set [10]; 105% in [11].
